Literature values in PMC12731121.

Key:
MIF (Homo sapiens) = MIF (Homo sapiens) (UniProt P14174)
[1] = target: D-dopachrome tautomerase (MIF-2) (Homo sapiens) (UniProt P30046)
[2] = target: Cathepsin S (Homo sapiens) (UniProt P25774)
[3] = target: Cathepsin H (Homo sapiens) (UniProt P09668)
[4] = target: Cathepsin L (Homo sapiens) (UniProt P07711)
Sequence of Cathepsin L (Homo sapiens) (P07711 292-333): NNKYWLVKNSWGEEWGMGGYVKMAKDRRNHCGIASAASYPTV

Sequence of CD74 p41 thyropin domain (P04233 210-271): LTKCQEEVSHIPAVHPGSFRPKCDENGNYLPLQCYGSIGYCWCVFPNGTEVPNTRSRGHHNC
Sequence of CD74 (P04233 73-296): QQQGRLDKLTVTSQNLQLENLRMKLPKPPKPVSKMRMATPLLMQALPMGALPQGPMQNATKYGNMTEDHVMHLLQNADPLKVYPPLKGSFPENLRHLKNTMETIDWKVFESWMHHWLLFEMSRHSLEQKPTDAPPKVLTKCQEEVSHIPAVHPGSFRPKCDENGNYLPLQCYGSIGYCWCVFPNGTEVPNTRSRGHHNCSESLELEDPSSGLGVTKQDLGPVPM
Sequence of Cathepsin S (Homo sapiens) (P25774 115-331): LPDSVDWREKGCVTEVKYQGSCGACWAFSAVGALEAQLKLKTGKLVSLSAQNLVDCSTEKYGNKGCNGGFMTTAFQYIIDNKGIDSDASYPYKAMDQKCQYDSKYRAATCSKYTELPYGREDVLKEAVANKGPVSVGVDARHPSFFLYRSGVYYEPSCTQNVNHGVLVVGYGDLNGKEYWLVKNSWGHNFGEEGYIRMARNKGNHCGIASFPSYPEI
Sequence of Cathepsin H (Homo sapiens) (P09668 whole entry, looked up): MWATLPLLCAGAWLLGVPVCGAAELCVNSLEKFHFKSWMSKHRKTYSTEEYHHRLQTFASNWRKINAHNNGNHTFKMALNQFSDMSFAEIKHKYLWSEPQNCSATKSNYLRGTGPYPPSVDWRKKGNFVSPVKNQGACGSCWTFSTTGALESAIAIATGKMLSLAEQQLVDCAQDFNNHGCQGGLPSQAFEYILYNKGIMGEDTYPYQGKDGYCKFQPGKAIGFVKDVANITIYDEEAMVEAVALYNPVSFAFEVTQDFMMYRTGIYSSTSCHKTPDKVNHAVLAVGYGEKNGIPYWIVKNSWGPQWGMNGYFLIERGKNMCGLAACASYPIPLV
Sequence of MIF (Homo sapiens) (P14174 2-115): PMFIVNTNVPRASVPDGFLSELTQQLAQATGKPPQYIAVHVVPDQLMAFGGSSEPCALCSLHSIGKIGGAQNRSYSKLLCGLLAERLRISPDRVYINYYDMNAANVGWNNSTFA
Sequence of D-dopachrome tautomerase (MIF-2) (Homo sapiens) (P30046 2-118): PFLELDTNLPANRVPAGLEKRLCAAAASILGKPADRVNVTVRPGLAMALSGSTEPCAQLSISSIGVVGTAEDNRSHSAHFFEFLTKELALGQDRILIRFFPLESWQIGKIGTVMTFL

Substance | Kd (MIF (Homo sapiens)) [nM] | Kd [1] [nM] | Ki [2] [nM] | Ki [3] [nM] | Ki [4] [nM]
CD74 (from UniProt P04233) | 1.4 | 5.4 |  |  | 
CD74 p41 thyropin domain (from UniProt P04233) |  |  | 208 | 5.3 | 0.0017
